We go through 1 substance from article PMC2841749.

This assay addresses native CTF cleaved from full-length rCav2.1 proteins. As to the kind of experiment: SDS-PAGE under mildly denaturing conditions with immunoblot. (In general: A western blot detects proteins with antibodies after separation by electrophoresis.)

The stoichiometry N is the number of molecules, sites or subunits per partner or assembly. In turn, “native CTF cleaved from full-length rCav2.1 proteins” showed a stoichiometry N of 2.
